Experimental data: paper PMC2602784

Legend:
Assay in all cases: EMSA
LldR K4A = target: T1, LldR K4A (Corynebacterium glutamicum ATCC 1332 …, UniProt Q8NLM6 1-231, K4A)
T1 sequence: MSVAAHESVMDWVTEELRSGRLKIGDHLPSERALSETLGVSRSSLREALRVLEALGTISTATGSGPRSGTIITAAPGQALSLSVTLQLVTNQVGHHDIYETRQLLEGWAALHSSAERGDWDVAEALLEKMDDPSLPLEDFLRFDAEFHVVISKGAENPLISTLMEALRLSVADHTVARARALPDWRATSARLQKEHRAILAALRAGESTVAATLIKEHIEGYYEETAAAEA

LldR R32A = target: T2, LldR R32A (Corynebacterium glutamicum ATCC 1332 …, UniProt Q8NLM6 1-231, R32A)
T2 sequence: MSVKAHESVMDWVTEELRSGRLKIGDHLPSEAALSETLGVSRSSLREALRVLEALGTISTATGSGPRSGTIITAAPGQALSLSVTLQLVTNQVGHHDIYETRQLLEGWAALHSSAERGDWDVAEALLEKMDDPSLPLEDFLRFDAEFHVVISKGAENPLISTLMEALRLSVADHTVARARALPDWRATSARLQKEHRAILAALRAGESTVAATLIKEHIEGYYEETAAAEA

LldR G63A = target: T3, LldR G63A (Corynebacterium glutamicum ATCC 1332 …, UniProt Q8NLM6 1-231, G63A)
T3 sequence: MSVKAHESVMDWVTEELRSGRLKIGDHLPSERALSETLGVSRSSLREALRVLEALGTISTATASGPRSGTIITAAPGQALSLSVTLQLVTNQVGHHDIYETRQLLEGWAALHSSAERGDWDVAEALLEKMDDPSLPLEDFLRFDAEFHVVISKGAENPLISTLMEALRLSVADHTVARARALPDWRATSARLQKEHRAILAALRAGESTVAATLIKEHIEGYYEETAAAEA

LldR R42A = target: T4, LldR R42A (Corynebacterium glutamicum ATCC 1332 …, UniProt Q8NLM6 1-231, R42A)
T4 sequence: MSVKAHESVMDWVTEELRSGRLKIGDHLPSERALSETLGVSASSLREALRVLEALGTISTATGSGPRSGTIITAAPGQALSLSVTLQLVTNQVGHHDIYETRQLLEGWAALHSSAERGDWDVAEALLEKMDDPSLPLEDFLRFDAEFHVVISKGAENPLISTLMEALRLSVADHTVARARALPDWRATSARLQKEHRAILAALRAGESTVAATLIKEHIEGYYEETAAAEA

Measured: binding result

B1: cgl2917-site1 (dsDNA)
DNA 1: TTGTGGTCTGACCATGA
DNA 2: TCATGGTCAGACCACAA
no binding: LldR K4A | LldR R32A | LldR G63A | LldR R42A
